The values that follow are results of earlier work, collected in article PMC11128129.

pKd: −log10 of the molar value.

For the series, the target named is PCSK9 (Homo sapiens) (UniProt Q8NBP7).
Sequence of PCSK9 (Homo sapiens) (Q8NBP7 153-692): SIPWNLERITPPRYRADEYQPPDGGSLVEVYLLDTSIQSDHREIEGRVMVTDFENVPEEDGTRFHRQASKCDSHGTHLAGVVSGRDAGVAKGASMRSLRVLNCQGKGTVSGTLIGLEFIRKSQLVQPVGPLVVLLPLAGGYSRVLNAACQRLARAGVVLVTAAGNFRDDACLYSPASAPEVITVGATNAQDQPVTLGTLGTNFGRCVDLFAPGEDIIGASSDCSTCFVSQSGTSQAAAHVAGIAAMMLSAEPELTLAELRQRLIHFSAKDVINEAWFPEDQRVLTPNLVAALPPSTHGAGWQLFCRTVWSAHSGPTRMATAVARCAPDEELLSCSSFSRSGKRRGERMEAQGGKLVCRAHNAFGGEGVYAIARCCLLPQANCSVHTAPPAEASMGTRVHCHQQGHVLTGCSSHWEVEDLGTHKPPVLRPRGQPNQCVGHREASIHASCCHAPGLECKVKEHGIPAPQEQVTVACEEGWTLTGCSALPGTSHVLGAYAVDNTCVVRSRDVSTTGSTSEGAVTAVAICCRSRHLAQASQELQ

For LDLR (from UniProt P01130), the pKd – broadly, −log10 of the Kd, conventionally taken in molar units – was 6.14.
